Values quoted from earlier work, collected in patent US20180296685A1, “TARGETED CONSTRUCTS AND FORMULATIONS THEREOF” (TARVEDA THERAPEUTICS, INC., priority 2017, published 2018).

Details: transthyretin, serum protein

**Q.** With Transthyretin as the substance, how does the in vivo half-life read?
**A.** around 48 h
